The results in this text go back to the DeepSol protein solubility set.

A short description of this data set: soluble on expression in E. coli; label from the status in PepcDB or PDB records.
As to “MIKPYDFVPFLPYKPYDDVKAERGDGKIPIRVKTLTPVHIPSGEYTVSGDNSMIYKEFVKVNGVPVIPGTSFKGCIRSIAESISYSCLYIFDKQKKELIPEFKLEAQEKDHEKNKEQRNENGKKCIVSDMFGMPGQKSKIVFNDLRGVPNKYKLEIKGIPTSFRPNPDAEYYLENGKYKGYKFYKHGINGIQPKGNMLCEFAAENSLFEGEIIYKNLTEEQIRLLCFSLGLSGDINPKIGYGKNYFYGSIEVTSDAKWVEKAKQYKNIEKDDIKNNINLIISILNYKNAVTSVD”, the “soluble on expression in E. coli” value is “soluble”.
The same measure for “MIKRYTCPNGVRIVLENNPTVRSVAIGVWIGTGSRHETPEINGISHFLEHMFFKGTSTKSAREIAESFDRIGGQVNAFTSKEYTCYYAKVLDEHANYALDVLADMFFHSTFDENELKKEKNVVYEEIKMYEDAPDDIVHDLLSKATYGNHSLGYPILGTEETLASFNGDSLRQYMHDYYTPDRVVISVAGNISDSFIKDVEKWFGSYEAKGKATGLEKPEFHTEKLTRKKETEQAHLCLGFKGLEVGHERIYDLIVLNNVLGGSMSSRLFQDVREDKGLAYSVYSYHSSYEDSGMLTIYGGTGANQLQQLSETIQETLATLKRDGITSKELENSKEQMKGSLMLSLESTNSKMSRNGKNELLLGKHKTLDEIINELNAVNLERVNGLARQLFTEDYALALISPSGNMPS”: “not soluble”; for “MIKVGICDTTFARYDMGGAAIDELKKHTAGIKIIRRTVPGIKDLPVACKKLIEEEGCEMVMALGMPGPEEKDKVCAHEASTGLIQAQLMTNTHILEVFVHEDEEDDPEELKVLADNRAREHAQNLIMMLFKPDRLTREAGMGLREGKPDAGPL”: “not soluble”.
The value for “MILDSQLAQQIVDRTMAIIGYNINVMNQAGVIIGSGEKNRIGQVHDGAILALKHGDSVELTAESCVALKGVKPGINMVLRNQQQVVGIVGITGEPKDIRDFANLVKMSAEMIIEQAALVEQLQWDRRHREEFISAWIHNTLSAAELDAWAARLSIDLSKPRVAVVIAFRQPKSGQSLDQIRQVVELLEHPERDNLVAVVSMQEIVVLKPCRTPEHWTSEYESLRIDKLMARLKAYDITGYDIALGQLFINPNAIHLSYQSAKQVLRIGQVRQPEKQKHLYEELRLPVLLLPLNEGWQGEQWRRVMQELQTQDKSGQLVKTLKGLFAANGNLNLCAQQLFIHRNTLRYRLEKITEITGIETNSLLGLAELYIAYQLTSYD” was “soluble”; that for “MILDYIYHSGFAIEAEGVTLIIDYYKDSSETELNKGIVHDRLLQRPGKLYVLASHFHPDHFNREVLTWKEQRPDIIYIFSKDILKHHRAQKEDAIYINKGEEYEDDMLRIQAFGSTDVGISFLIHLQGKSIFHAGDLNNWHWSEESTEQEIRKAEGDFLAEIKYLQAAVPTIDLVMFPVDRRMGKDYMKGAQQFIERIKTTIFVPMHFSEDYEGGNAFRSIAEAGGCRFITITHRGESFDI” was “not soluble”; that for “MILEKAREILEEHQLCNHCLGRLFGKLGKGTNEERGRAIRLLLSMETGKEYKEPEKCELCGGVFNNLDKFAELCIKAAEGIEFETFWVGSRFPEEIEKKEEEIWRKFRVVSGEKITKEFNRELGKVIAVRYGKTPVKERPDVVFIVEPFSEKVELQVNPIYVAGRYRKLIRGIPQTPAPGFKESIATIICRAFKKHFHGKCIFKGAGREDVDVRMLGNGRPFVVEIKRPRKRKVNLKDIEEEINQSGKVEVLNLRFITPEEAERILTTRHRKVYEAIVYVKDGITKEEVEKVVKSLKNAEIKQRTPRRVLNSRADLVRVRKVYDVKGELIDDKHFKLRLVTDGGLYIKELISGDRGRTTPSVSEILGKEAWCEILDVLEVLDDVEGDNLEHHHHHH” was “not soluble”.
The value for “MILFDYKLLAALAAVVEQGGFERAAQALGLSQSAVSQRIKLLEARVGQPVLVRETPPHPTDLGRRLLNHVQQVRLLEGDLQRWVPNLDEGGAPERLRIALNADSLATWWAAAVGDFCAERRVLLDLVVEDQEVGLKRMRAGEVAGCVCGSARPVAGARSLLLGAMRYRGLASPDFIARHFPRGVEAAALAGVPAIVFGPDDLLQHRFLKDLGVEGGFIHHLCPSSEGFVRLTAGGLGWGLVPERQVQGELARGELVELLPGQVIDVPLYWHYWRNGGELLASLTEHLLARAGDGLVRVSG” was “not soluble”; that for “MILFGTGGIRGVMRKGEFDEETVKRASLSTALWLKEKGQKSVVIAYDTRKNSKEFAELAGRVFAGEGIEAYVFPEPTPTPVLSFAVRYMKTGGGVVITASHNPPEYNGYKVYTWDGVQAIPEYTNEITEIYKKVDLSHVKEGEIKFVPPEVKESYIKAVLEIVSNLPMKTDLDIAYSPLHGTGANYVPEVLKRLGFKVRLVEEQMKPDPNFSTVPTPNPEEDEALVLLNKKGATLGLATDPDCDRVGVVFKGRRLTGNQVGVLLTDFLLDHVKVENPLVIKTIVTTDMVRPICEEKGAFLEETPTGFKFIGHLIEEHTKKGDRNFVFGFEESCGYLAGNHARDKDGVVGSVLSAVAFSNYDPYEKLEELYQKYGYYMEKLINFKFEDVDRAVEIYRSLKNYDGIIDYSKGYGNVIPNETIAFVFEKSRIFVRPSGTEPKLKVYIHVRGDTREEAEELMKESESKIKEILKL” was “soluble”; that for “MILINKRAEKQDYQTILAIWEKSVIVTHDFLTAEDRQFYKEQIPLFLDNVELFLWFAGEEVIGFSGTSERELDMLFLDPVATGNGYGSQILGWLIENKRINLVDVNEQNENATRFYLKHGFVVSSRSDLDGFGKPYPILQLQLK” was “not soluble”.
Regarding “MILREFCAENLTDLTRLDKAIISRVELCDNLAVGGTTPSYGVIKEANQYLHEKGISVAVMIRPRGGNFVYNDLELRIMEEDILRAVELESDALVLGILTSNNHIDTEAIEQLLPATQGLPLVFHMAFDVIPKSDQKKSIDQLVALGFTRILLHGSSNGEPIIENIKHIKALVEYANNRIEIMVGGGVTAENYQYICQETGVKQAHGTRITQMAGDPLEHHHHHH”, the “soluble on expression in E. coli” value is on record as “soluble”.
The same measure for “MILSDKDIIDYVTSKRIIIKPFNKDFVGPCSYDVTLGDEFIIYDDEVYDLSKELNYKRIKIKNSILVCPLNYNLTEEKINYFKEKYNVDYVVEGGVLGTTNEYIELPNDISAQYQGRSSLGRVFLTSHQTAGWIDAGFKGKITLQIVAFDKPVILYKNQRIGQLIFSKLLSPADVGYSERKTSKYAYQKSVMPSLIHLDNHKKD”: “soluble”; for “MILVFLDNMASIKDLNLIDEINDSSNLKLINDRLKLLFWTKNPEITDEENKKKYLDFLNEYWDTLRAYGAGDLELFPDKINYLTLILAANSKNHNIYIKKLAEKYAEKIPIEDGDSKINIWDFIDVAANSRNNDLHLERMILEGDTVLLNQKNQSIYNFEKIRLKLKNYVEKVRNAEMPKEIKDLLVKKSEEAFEGINIGYNIESGIKVSTKEYSGEIPEDWHPPCMREILNDILSGGSPSHYARRSFVVYRFVSQFDPNLRPIEEGIITNRSAQDIATEEQIERFLDEIINIFKSVGDFDVEKTKYYISHNIGYKVANHITHCEYCKNWRDDGGKGLGYYCRPDSTCSRKDIIHPLDYLCHNINRHVKKSELEHHHHHH”: “not soluble”; for “MILVGDGEDLEPPDDFLRREVADSVLNLLGDYRFLTKGYFVSLHAEENGCEVFPPVKNALDAYRAPLFMNAVRKLGLETPEFSIRSEPKFERGVLLPLNPFSKNSAKVVKTSHQYAKAFKRLSMNRYPVVQVKSEKYDSFNLYLWRADKEEYNFIAEKIFKGLRIPLGKVLVDVTDGMAKPFYFMPVEKGEINLRLVFEVLYENCLLR”: “not soluble”.
With “MILVTGSSGQIGTELVPYLAEKYGKKNVIASDIVQRDTGGIKFITLDVSNRDEIDRAVEKYSIDAIFHLAGILSAKGEKDPALAYKVNMNGTYNILEAAKQHRVEKVVIPSTIGVFGPETPKNKVPSITITRPRTMYGVTKIAAELLGQYYYEKFGLDVRSLRYPGIISYKAEPTAGTTDYAVEIFYYAVKREKYKCYLAPNRALPMMYMPDALKALVDLYEADRDKLVLRNGYNVTAYTFTPSELYSKIKERIPEFEIEYKEDFRDKIAATWPESLDSSEASNEWGFSIEYDLDRTIDDMIDHISEKLGIEGKHAL”, the “soluble on expression in E. coli” value is “soluble”.
Take “MIMNIFLIKEADLVEAAEIISASFKNYEVMRYLFNDSGNDHEAHITEFFLAFYQFGLANNWPCYGVRVNEQWVAVALGCNSSEQEIIKGSDDALTEFYKKISPQACCRIEQYDQQADAAHPSKAHFFIDSIGTHPDHQGKGYAKALILKFQELSKSDVHSTGVGLNTESDNNINFYQHLGYQVKAQQKIGSLTSWSLFRTDD”: the “soluble on expression in E. coli” value is “not soluble”.
“MIMQEIFLCSISNVRSGDCKEDCAYCTQSSHHQGAIKRYKFKDEKVVLQEARALRQLGALGFCLVTSGRELDDEKCEYIAKLAKAINQEELGLHLIACCGRADLEQLEFLRDAGIHSYNHNLETSQNFFPKICSTHTWEERFITCENALRAGLGLCSGGIFGLNESWEDRIEMLRALASLSPHTTPINFFIKNPVLPIDAETLSADEALECVLLAKEFLPNARLMVAGGREVVFKDNDKKEAKLFEYGINAVVLGDYLTTKGKAPKKDIEKLLSYGLTMATSCHLEHHHHHH”: the “soluble on expression in E. coli” value was “not soluble”.
For the sequence “MINLPAEGHVNPTLSLVKAFTERGDHVHYITTEHFKGRIEDLGATVYTHPDLLKDISIDTETSYGLNSFFHVHVQTSLYILEITKQLCESINFDFVIYDIFGAGELVKEYLQIPGIVSSPIFLIPTEFLETLPFHPNAEIPFQPDEISEQLLYRMEHEFGVKPKNNLQFMHNKGDITLVYTSRYFQPNSDLFGENNIFIGPSISKRKTNVEFPLELLKGKKVIYISMGTLLEGLEPFFNTCIDTFSDFKGVVVMAIGDRNDRSKIKKAPDNFIIASYVLQSEILNEADVFITHGGMNSVHDAIYFNVPFVIIPHDKDQPMIAQRLTELEAAHRLLKEHVNVQSLKEAVTDVLLNEKYKHGIRKLKDSFLQCGGAKEAISVIKSLLNK”, the “soluble on expression in E. coli” value is given as “not soluble”.
Regarding “MINMEKCLLEKYNSLLEFFKNKKVIVAYSGGVDSTLISKIASDATKTLAVTVDNGFFSENVIKKAEDCAKKYNIPQKTEKIDYLNEITSKNLENRCYNCKKRIAEELKKIKNELNYDIIVDGTIYDDIFEDRPGIKAFHEENIISPLSDLKFNKNDVFEISKYLKIDIPKKDTCMATRILSAPISKENMAKSNLAEEFIKSNFHIESYLRVRYIENIAIIELTKNESEKIFDNDSIERINTELKKIGFEKVVIDLNFK”, the “soluble on expression in E. coli” value is given as “not soluble”.
The same measure for “MIPFVWGICMPTLRNPQYRAFARRKLYRRQDGKCFYCHRDLTTKKTGELALTIEHRKAKMKGGTDDLKNLVAACWHCNHHRGEQMNATKQRKEAKALSRQRRMLARDCRSKADSQADGKAHEQLASKVEGNGANRTPSVHTARSEGLGLEHHHHHH”: “soluble”.
The same measure for “MIPKNIHLIFLRKDEPFPELFEKCKQEIQVNHPDWNIRLYNKDDAQDILNQDLPEYIEAYNAFYHNVQKADFLRLALVYLYGGFYMDLDMLSLKPLDELRKYNLVLGEEKIVCQAEQEALNLRYRLRIANYMFGGIPKHPFLHRIMDEMAERATIILKSQQEILDITGPGLLTDTYWDNYGMYTDITLLRNTDKRCRQPYHNEISCHFGDYAAHLHAGTWRTGILEHHHHHH”: “soluble”.
On to “MIPMFKKKPLIGMVHLKPLPGSYHYNDNFDDIVDFAIKEAKKLEEAGFDAVMIENFGDAPFKKEADKITIASMAVIAKAIKEEVSLPLGINILRNDAIGAYSIAYVVKADFIRVNVLSGVAFTDQGIIEGKAYELAKLKKLLPSKIKVFADVHVKHAYHFIDFESSLLDTVERGLADAVIISGKRTGKEVDIEKLKLAKELVDVPVIVGSGTNYNNLRILWSYADGFIIGTWIKKDGKANNEIDIDRAKKIVNLANKLKMCLEHHHHHH”, for which the “soluble on expression in E. coli” value is given as “soluble”.
